Results as given in patent US20110131688A1 (SALK INSTITUTE FOR BIOLOGICAL STUDIES, published 2011).

T1: EIN3 full-length protein (ETHYLENE-…3 transcription factor) (Arabidopsis, UniProt O24606 1-628)
T1 construct: Full-length EIN3 in the direct yeast two-hybrid tests, cloned in pAS2 or pACT2; In the immunoblots it is the endogenous or overexpressed EIN3 from plant extracts; also called At3g20770
T1 sequence: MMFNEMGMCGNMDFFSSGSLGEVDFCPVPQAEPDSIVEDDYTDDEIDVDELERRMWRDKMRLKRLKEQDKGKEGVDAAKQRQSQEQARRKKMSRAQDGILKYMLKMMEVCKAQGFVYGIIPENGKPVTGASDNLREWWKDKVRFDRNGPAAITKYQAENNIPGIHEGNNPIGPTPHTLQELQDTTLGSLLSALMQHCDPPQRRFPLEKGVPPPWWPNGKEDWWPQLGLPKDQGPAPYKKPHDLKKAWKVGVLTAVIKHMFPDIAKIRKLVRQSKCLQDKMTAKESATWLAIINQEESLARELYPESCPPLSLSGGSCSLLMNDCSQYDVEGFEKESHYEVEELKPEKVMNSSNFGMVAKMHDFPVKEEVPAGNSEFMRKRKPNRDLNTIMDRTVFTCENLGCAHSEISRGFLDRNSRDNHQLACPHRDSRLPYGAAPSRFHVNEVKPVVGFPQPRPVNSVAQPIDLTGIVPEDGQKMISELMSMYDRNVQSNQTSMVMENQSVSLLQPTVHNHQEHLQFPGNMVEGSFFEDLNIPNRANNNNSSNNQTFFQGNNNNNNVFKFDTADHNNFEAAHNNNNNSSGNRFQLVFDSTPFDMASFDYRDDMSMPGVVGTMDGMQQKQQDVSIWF

B1: EBF2 (EIN3-binding F-box protein 2) (other)
chain: MSGIFRFSGDEDCLLGGSMYLSPGSCPGVYYPARKRLRVAATSFYSGFEEKQTSIDVLPEECLFEILRRLPSGQERSACACVSKHWLNLLSSISRSEVNESSVQDVEEGEGFLSRSLEGKKATDLRLAAIAVGTSSRGGLGKLQIRGSGFESKVTDVGLGAVAHGCPSLRIVSLWNLPAVSDLGLSEIARSCPMIEKLDLSRCPGITDSGLVAIAENCVNLSDLTIDSCSGVGNEGLRAIARRCVNLRSISIRSCPRIGDQGVAFLLAQAGSYLTKVKLQMLNVSGLSLAVIGHYGAAVTDLVLHGLQGVNEKGFWVMGNAKGLKKLKSLSVMSCRGMTDVGLEAVGNGCPDLKHVSLNKCLLVSGKGLVALAKSALSLESLKLEECHRINQFGLMGFLMNCGSKLKAFSLANCLGISDFNSESSLPSPSCSSLRSLSIRCCPGFGDASLAFLGKFCHQLQDVELCGLNGVTDAGVRELLQSNNVGLVKVNLSECINVSDNTVSAISVCHGRTLESLNLDGCKNITNASLVAVAKNCYSVNDLDISNTLVSDHGIKALASSPNHLNLQVLSIGGCSSITDKSKACIQKLGRTLLGLNIQRCGRISSSTVDTLLENLWRCDILY
notes: In the yeast two-hybrid assays the cDNA was cloned into pAS2 or pACT2 (Clontech), so the protein was a fusion with the vector's domain; also called AAR27072.1
B2: ASK1, an Arabidopsis Skp1 protein (other, UniProt Q39255 1-160, looked up)
chain: MSAKKIVLKSSDGESFEVEEAVALESQTIAHMVEDDCVDNGVPLPNVTSKILAKVIEYCKRHVEAAASKAEAVEGAATSDDDLKAWDADFMKIDQATLFELILAANYLNIKNLLDLTCQTVADMIKGKTPEEIRTTFNIKNDFTPEEEEEVRRENQWAFE
notes: Yeast two-hybrid fusion in pAS2 or pACT2
B3: EBF1 (EIN3-binding F-box protein 1) (other)
chain: MSQIFSFAGENDFYRRGAIYPNPKDASLLLSLGSFADVYFPPSKRSRVVAPTIFSAFEKKPVSIDVLPDECLFEIFRRLSGPQERSACAFVSKQWLTLVSSIRQKEIDVPSKITEDGDDCEGCLSRSLDGKKATDVRLAAIAVGTAGRGGLGKLSIRGSNSAKVSDLGLRSIGRSCPSLGSLSLWNVSTITDNGLLEIAEGCAQLEKLELNRCSTITDKGLVAIAKSCPNLTELTLEACSRIGDEGLLAIARSCSKLKSVSIKNCPLVRDQGIASLLSNTTCSLAKLKLQMLNVTDVSLAVVGHYGLSITDLVLAGLSHVSEKGFWVMGNGVGLQKLNSLTITACQGVTDMGLESVGKGCPNMKKAIISKSPLLSDNGLVSFAKASLSLESLQLEECHRVTQFGFFGSLLNCGEKLKAFSLVNCLSIRDLTTGLPASSHCSALRSLSIRNCPGFGDANLAAIGKLCPQLEDIDLCGLKGITESGFLHLIQSSLVKINFSGCSNLTDRVISAITARNGWTLEVLNIDGCSNITDASLVSIAANCQILSDLDISKCAISDSGIQALASSDKLKLQILSVAGCSMVTDKSLPAIVGLGSTLLGLNLQQCRSISNSTVDFLVERLYKCDILS
notes: In the yeast two-hybrid assays the cDNA was cloned into pAS2 or pACT2 (Clontech), so the protein was a fusion with the vector's domain; also called FBL6; At2g25490

Assays:
[1] = target: T1, EIN3 full-length protein (ETHYLENE-…3 …); test: yeast two-hybrid (summary in Example 8)
Text: (§1) We then directly tested the possible interaction between EIN3 full-length protein and individual F-box proteins. Using genome-wide microarray experiments, we narrowed the search for EIN3-interacting F-box proteins by first testing those genes whose RNA levels were regulated by ethylene (Alonso et al., Science 301, 653-657, 2003; H. G. and J. R. E., unpublished data). From this gene list, two closely related candidate F-box proteins were identified which were able to interact with EIN3 in yeast two-hybrid assays (FIGS. 4C and 4E). We designated these two F-box proteins as EBF1 and EBF2 (for EIN3-binding F-box protein 1 and 2). EBF1 was previously named as FBL6 with no function assigned (Xiao and Jang, 2000). These two proteins share 57% identity in amino acid sequence (FIG. 4A), and each contains a well-conserved F-box motif in the amino-terminus and 18 tandem leucine-rich repeats (LRRs) in the carboxyl terminus (FIGS. 4A and 4B). Because LRR domains in several F-box proteins contribute to the substrate binding (Gagne et al., Proc Natl Acad Sci 99, 11519-11524, 2002), we tested whether the C-terminal LRR domains in EBF1 and EBF2 were sufficient for EIN3 interaction. […]

[2] = target: B1; test: yeast two-hybrid
Text: as §1

[3] = target: B3; test: yeast two-hybrid
Text: as §1

[4] = target: T1, EIN3 full-length protein (ETHYLENE-…3 …); test: yeast two-hybrid, filter-lift beta-galactosidase
Text: as §1

Binder: B1
- binding result [1]: binds

Binder: B2
- binding result [2]: binds
- binding result [3]: binds

Binder: B3
- binding result [4]: binds
